Measurements taken from publication doi:10.1101/359182, “Capturing auxin response factors syntax using DNA binding models”.

Target: T1, MP (ARF5/Monopteros) (UniProt P93024 1-902)
T1 sequence: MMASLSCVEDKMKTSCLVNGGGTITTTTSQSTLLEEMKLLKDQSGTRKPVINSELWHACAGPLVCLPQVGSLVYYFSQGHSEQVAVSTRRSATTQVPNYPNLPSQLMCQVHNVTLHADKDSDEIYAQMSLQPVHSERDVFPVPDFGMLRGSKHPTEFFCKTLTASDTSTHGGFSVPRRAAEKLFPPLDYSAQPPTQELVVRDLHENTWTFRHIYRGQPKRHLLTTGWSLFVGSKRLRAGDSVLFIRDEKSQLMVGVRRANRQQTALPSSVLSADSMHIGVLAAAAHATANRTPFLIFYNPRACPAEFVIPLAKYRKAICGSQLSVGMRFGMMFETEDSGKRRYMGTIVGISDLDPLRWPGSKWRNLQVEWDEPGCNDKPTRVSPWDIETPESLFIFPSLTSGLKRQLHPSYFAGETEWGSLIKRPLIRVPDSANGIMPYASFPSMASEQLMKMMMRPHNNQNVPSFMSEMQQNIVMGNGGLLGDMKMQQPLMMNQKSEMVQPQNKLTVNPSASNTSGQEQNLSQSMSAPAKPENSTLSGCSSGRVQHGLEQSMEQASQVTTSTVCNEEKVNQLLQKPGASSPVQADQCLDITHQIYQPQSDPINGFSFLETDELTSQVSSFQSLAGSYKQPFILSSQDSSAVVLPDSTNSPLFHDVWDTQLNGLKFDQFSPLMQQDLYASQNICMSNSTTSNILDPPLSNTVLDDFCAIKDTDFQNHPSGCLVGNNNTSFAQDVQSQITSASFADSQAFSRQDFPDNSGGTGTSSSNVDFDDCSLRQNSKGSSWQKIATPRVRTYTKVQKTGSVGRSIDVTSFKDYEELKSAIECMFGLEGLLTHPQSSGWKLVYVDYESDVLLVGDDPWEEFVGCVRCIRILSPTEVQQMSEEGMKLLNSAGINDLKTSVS
Test: EMSA; EMSA: 25 mM HEPES pH 7.4, 1 mM EDTA, 2 mM MgCl2, 100 mM KCl, 10% glycerol, 1 mM DTT, 0.5 mM PMSF, 0.1% Triton, 0.045 mg/ml salmon/herring DNA, 20 nM probe, protein 0-500 nM, 1 h at 4 C, 2% agarose in 0.5x TBE
Details: protein: recombinant; tags: N-terminal His-MBP-His; label: Cy5-dCTP, Klenow fill-in opposite 5' G; blunt after fill-in of 5' G overhang

B1: IR13 (dsDNA)
DNA 1: GATGCAGCCGACAAAACACATGATTTTGTCGGCTCACAT
DNA 2: ATGTGAGCCGACAAAATCATGTGTTTTGTCGGCTGCATC
B1: binds.
